From patent publication US20220332804A1 (CSL INNOVATION, published 2022) come the findings set out here.

Common to all, as to test: SPR, antibody captured, C2 as analyte;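 further: biacore at 37 °C, anti-C2 mAbs held by immobilised goat anti-human IgG, C2 alanine or serine mutants injected, double-referenced sensorgrams fitted to a 1:1 kinetic or steady-state model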
One test has as its target T1, human C2 N325A (human, UniProt P06681 21-752).
T1 sequence: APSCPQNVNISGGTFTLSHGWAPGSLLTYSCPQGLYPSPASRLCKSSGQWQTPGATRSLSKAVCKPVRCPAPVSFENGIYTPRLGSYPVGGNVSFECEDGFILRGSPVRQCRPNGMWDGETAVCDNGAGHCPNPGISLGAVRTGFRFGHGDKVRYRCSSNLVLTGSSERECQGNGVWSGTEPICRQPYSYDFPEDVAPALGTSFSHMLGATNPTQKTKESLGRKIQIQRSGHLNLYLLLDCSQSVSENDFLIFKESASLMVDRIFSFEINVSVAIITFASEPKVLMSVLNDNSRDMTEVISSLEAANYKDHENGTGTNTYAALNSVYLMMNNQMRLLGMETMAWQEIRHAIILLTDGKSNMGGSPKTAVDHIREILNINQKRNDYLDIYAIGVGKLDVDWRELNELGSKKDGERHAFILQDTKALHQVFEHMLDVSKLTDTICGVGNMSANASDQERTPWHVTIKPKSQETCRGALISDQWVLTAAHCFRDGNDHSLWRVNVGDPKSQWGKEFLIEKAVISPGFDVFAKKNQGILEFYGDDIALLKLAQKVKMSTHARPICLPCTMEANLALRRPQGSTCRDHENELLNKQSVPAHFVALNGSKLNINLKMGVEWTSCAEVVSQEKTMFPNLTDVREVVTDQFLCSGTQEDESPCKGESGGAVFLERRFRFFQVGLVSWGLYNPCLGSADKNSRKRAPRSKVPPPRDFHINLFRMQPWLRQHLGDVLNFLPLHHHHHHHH

The target in the next test is T2, human C2 D431A (human, UniProt P06681 21-752).
T2 sequence: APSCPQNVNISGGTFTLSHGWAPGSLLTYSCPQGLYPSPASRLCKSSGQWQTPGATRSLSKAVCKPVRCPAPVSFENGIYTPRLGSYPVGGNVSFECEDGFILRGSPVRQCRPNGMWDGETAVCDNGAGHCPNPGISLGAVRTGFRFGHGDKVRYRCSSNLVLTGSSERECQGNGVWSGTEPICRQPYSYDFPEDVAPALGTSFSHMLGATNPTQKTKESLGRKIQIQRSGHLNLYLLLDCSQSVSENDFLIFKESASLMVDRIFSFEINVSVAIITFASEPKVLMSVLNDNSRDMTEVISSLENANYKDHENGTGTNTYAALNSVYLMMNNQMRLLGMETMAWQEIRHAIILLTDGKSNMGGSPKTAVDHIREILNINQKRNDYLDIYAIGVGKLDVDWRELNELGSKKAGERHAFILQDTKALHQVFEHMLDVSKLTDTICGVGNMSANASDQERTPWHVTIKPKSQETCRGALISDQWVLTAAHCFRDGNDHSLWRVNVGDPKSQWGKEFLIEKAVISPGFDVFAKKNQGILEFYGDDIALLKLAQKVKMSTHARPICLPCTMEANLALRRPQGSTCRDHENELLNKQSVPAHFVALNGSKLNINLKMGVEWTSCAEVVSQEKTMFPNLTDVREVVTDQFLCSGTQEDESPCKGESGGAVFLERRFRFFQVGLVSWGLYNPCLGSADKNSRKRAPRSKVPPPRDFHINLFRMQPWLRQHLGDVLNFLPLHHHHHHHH

The target in another test is T3, human C2 R688A (human, UniProt P06681 21-752).
T3 sequence: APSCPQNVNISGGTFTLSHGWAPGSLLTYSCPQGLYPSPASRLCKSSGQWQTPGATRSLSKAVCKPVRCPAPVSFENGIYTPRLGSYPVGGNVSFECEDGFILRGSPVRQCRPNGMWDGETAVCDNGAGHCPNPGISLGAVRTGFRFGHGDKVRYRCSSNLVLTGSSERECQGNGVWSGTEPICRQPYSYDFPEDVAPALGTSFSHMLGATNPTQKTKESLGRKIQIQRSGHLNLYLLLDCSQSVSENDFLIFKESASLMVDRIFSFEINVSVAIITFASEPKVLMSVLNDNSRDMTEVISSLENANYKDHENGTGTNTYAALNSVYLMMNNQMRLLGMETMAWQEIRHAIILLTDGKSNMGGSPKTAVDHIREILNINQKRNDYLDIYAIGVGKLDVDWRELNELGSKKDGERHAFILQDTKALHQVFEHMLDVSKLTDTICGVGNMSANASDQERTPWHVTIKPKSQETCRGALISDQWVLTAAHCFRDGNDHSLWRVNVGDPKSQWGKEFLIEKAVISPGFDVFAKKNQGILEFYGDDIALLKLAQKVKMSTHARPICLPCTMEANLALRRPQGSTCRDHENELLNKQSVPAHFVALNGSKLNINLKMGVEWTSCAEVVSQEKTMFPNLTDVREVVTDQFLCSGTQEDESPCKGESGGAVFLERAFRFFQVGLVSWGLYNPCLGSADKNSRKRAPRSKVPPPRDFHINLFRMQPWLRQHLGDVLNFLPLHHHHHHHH

The next test has as its target T4, human C2 S473A (human, UniProt P06681 21-752).
T4 sequence: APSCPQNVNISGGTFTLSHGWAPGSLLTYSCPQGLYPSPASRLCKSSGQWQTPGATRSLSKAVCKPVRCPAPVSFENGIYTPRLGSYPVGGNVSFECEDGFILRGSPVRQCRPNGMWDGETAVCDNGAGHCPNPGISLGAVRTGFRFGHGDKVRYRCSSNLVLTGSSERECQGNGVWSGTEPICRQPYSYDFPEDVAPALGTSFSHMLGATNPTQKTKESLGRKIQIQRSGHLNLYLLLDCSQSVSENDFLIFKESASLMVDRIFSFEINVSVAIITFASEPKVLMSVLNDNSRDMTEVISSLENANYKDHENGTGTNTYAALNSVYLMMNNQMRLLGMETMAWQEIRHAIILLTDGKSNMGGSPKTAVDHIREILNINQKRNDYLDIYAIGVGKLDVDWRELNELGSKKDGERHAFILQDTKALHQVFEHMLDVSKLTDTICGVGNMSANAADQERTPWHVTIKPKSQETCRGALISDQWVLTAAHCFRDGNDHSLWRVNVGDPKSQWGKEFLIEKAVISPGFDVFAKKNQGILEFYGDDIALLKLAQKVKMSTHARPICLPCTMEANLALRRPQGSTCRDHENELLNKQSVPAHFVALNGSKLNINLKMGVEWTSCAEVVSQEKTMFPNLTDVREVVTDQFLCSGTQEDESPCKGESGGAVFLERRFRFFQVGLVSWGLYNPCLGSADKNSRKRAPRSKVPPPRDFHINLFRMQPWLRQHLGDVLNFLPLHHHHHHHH

Protocol for human C2 D431A: (§1) Surface plasmon resonance (SPR, Biacore) was used for all binding affinity analyses. In brief, goat anti-human IgG was directly immobilised onto the carboxymethyl dextran surface of CM5 sensorchips to approximately 12,000 RU using standard NHS/EDC chemistry at pH 5. The immobilised antibody surface was pre-conditioned with ten injections of polyclonal human IgG (Privigen 60 s) prepared at 1 μg/mL. Ligands (anti-C2 mAbs) were captured at the beginning of each cycle as described below. An adjacent spot or flow cell in which only Polyclonal IgG was capture was used as a reference surface. The goat anti-human IgG Fc antibody surface was regenerate in 100 mM H3PO4, injected for 45 seconds at the end of each cycle. Experiments were performed at 37° C. and the flow rate of each experiment was kept constant at 30 μL/min.
(§2) Sensogram data was double-referenced against a reference anti-IgG surface (i.e. minus anti-C2 mAb) and blank buffer injections obtained within each experiment. The binding data was fit to 1:1 (kinetic or steady-state) model using local Rmax and null refraction index (RI=0) when appropriate. Buffers and solutions were filtered (0.22 μm) prior to use.
Protocol for human C2 N325A: as §1, §2
Protocol for human C2 R688A: as §1, §2
Protocol for human C2 S473A: as §1, §2

B1: RF16-242 (antibody, human IgG4 S228P, lambda, V domains shown)
VH: EVQLLQSGAEVKKPGESLKISCKGSGYSFTSYWIGWVRQMPGKGLEWMGIIYPGDSDTRYSPSFQGQVTISADKSISTAYLQWSSLKASDTAMYYCARRGHYGDYFDYWGQGTLVTVSS
VL: SYELTQPPSVSVSPGQTARITCSGDALPKKYAYWYHQKSGQAPVLVIYEDRRRPSEIPERFSGSSSGTMATLTITGAQVEDEGVYFCYSRDRAGNQRVFGGGTQLTVLG
notes: pH-dependent anti-C2 antibody from a phage display library
As to B1, the Kd with human C2 N325A amounted to 39.9 nM; in the test with human C2 D431A, 22.9 nM; with human C2 R688A, 17.3 nM; with human C2 S473A it was 15.5 nM.
